The text below walks through data of article PMC10029098.

Assay [1] deals with PD1 (Homo sapiens), Q15116. The assay is described as follows: ELISA PD1/PDL1 blocking. Conditions: modification not given.
In assay [2] the target is PD1 (Homo sapiens), Q15116. As to the kind of experiment: competitive binding kinetics. Conditions: modification not given.

PD1 (Homo sapiens), Q15116, sequence (Q15116 25-170): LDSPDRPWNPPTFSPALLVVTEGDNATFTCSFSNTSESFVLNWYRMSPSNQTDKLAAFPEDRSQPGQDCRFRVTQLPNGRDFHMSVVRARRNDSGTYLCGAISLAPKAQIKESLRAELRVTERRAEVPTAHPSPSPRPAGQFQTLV

B1: peptide 1c (peptide)
chain: RWCARRDYRFDMGFDYWGWE
A word on the IC50: it is the concentration that inhibits the measured activity by half. Turning to B1, the IC50 in assay [1] amounted to 3.7 µM.

B2: hairpin 1e (peptide)
chain: RWVARRDYRFDMGFDYWVWE
For orientation: Ki means the equilibrium dissociation constant of an inhibitor or competing ligand from its target. In assay [2], B2 yielded a Ki of 0.041 µM. This molecule had an IC50 in assay [1] of 0.29 µM.
